These are literature values, as cited in publication PMC10298792.

The target in one data set is Bid BH3 (Homo sapiens) (UniProt P55957). Kind of data set: ITC. (ITC needs no label: the signal is the heat of the interaction.)
Another data set addresses Pxt1 BH3 (Homo sapiens) (UniProt Q8NFP0). Kind of data set: ITC.

Chain of Bcl-xL (Q07817 whole entry): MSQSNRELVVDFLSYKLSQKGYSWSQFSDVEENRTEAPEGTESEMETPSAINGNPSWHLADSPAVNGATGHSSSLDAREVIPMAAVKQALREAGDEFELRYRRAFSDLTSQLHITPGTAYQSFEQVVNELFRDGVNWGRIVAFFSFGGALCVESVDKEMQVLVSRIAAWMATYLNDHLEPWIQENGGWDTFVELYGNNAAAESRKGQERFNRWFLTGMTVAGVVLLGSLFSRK
Chain of Pxt1 BH3 (Homo sapiens) (Q8NFP0 76-101): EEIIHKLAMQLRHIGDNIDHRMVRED
Chain of Bak (Q16611 2-211): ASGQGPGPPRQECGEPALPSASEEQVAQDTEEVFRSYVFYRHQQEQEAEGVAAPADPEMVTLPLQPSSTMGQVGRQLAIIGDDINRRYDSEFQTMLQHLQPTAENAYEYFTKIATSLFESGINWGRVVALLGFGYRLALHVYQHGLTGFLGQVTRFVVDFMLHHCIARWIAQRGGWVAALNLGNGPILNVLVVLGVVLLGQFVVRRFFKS

Bak (from UniProt Q16611): in the data set with Bid BH3 (Homo sapiens), the equilibrium dissociation constant (Kd) was 22700 nM.

For the substance Bcl-xL (from UniProt Q07817), the figures for the dissociation constant Kd in the data set with Bid BH3 (Homo sapiens) and with Pxt1 BH3 (Homo sapiens) were 8.62 nM and 233 nM, respectively.

By Kd is commonly meant the constant that tells how readily two partners part at equilibrium.
